Test results taken from US20210380675A1 (Kyowa Kirin, published 2021).
Each block holds one binder with its values, some of them ahead of it.

Key:
[1] = molecular target: T1, human IL-36α(R12), truncated (human, UniProt Q9UHA7 6-158); assay: SPR, Biacore, 1:1 Langmuir fit
T1 construct: Untagged after removal of the His-SUMO tag; also called hIL-36alpha
T1 chain: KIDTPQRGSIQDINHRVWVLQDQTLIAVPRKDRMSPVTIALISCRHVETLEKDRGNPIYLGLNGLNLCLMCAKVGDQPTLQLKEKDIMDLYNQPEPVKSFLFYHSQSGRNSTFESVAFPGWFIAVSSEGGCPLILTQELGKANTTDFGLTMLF
Method: (§1) The humanized antibodies obtained in Example 6 were tested for their binding to recombinant human or cynomolgus macaque IL36a and IL-36γ in Biacore assays. The association time was set to 60 seconds, and the final dissociation time was set to 600 seconds. Equilibrium dissociation constant KD (kd/ka) of exemplary antibodies was determined using a 1:1 Langmuir fit model (see Tables 17-18 below).

human IL-36γ, truncated [2] = molecular target: T2, human IL-36γ, truncated (human, UniProt Q9NZH8 18-169); assay: SPR, Biacore, 1:1 Langmuir fit
T2 construct: Bought from R&D Systems (cat 6835-IL); also called human IL-36 gamma; hIL-36gamma
T2 sequence: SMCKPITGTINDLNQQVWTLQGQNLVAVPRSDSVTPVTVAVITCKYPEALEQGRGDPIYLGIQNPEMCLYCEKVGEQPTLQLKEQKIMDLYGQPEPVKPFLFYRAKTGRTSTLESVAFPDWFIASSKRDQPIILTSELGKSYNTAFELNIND
Method: as §1

[3] = molecular target: T3, cynomolgus IL-36α, truncated (cynomolgus macaque (Macaca fascicularis), UniProt Q9UHA7 14-158 (human entry), limits assumed); assay: SPR, Biacore, 1:1 Langmuir fit
T3 construct: Untagged after removal of the His-SUMO tag; also called cynomolgus IL-36 alpha; cyIL-36alpha
T3 chain: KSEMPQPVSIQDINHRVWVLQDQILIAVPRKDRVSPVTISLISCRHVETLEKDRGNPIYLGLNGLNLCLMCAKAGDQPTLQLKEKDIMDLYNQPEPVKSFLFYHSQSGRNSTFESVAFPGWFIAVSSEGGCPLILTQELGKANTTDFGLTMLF
Method: as §1

[4] = molecular target: T4, cynomolgus IL-36γ, truncated (cynomolgus macaque (Macaca fascicularis), UniProt Q9NZH8 18-167 (human entry), limits assumed); assay: SPR, Biacore, 1:1 Langmuir fit
T4 construct: Untagged after removal of the His-SUMO tag; also called cynomolgus IL-36 gamma; cyIL-36gamma
T4 chain: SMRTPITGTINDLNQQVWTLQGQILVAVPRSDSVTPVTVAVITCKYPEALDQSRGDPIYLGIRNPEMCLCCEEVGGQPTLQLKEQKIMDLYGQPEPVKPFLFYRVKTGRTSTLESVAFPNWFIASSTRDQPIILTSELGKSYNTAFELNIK
Method: as §1

[5] = molecular target: T1, human IL-36α(R12), truncated; assay: SPR, Biacore, 1:1 Langmuir fit; heads of c3 and c4 printed swapped
Method: as §1

human IL-36γ, truncated [6] = molecular target: T2, human IL-36γ, truncated; assay: as above
Method: as §1

[7] = molecular target: T3, cynomolgus IL-36α, truncated; assay: as above
Method: as §1

[8] = molecular target: T4, cynomolgus IL-36γ, truncated; assay: as above
Method: as §1

[9] = molecular target: T1, human IL-36α(R12), truncated; assay: cell-based or functional assay
[10] = molecular target: T3, cynomolgus IL-36α, truncated; assay: cell-based or functional assay
human IL-36γ, truncated [11] = molecular target: T2, human IL-36γ, truncated; assay: cell-based or functional assay
[12] = molecular target: T4, cynomolgus IL-36γ, truncated; assay: cell-based or functional assay
[13] = molecular target: T5, human IL-36α(Q12), truncated (human, UniProt Q9UHA7 6-158); assay: SPR, Biacore T200, antibody on chip, IL-36 as analyte, 1:1 Langmuir fit
T5 construct: Untagged after removal of the His-SUMO tag
T5 sequence: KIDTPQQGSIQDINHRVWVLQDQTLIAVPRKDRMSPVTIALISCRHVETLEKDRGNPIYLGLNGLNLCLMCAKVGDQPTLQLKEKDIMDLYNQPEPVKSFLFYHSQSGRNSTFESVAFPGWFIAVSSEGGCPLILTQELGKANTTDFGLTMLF
Method: (§2) Antibodies were further tested for their binding to recombinant human or cynomolgus IL36α, IL-36γ in Biacore assays. In order to kinetically analyze the binding activity of the IL-36α and IL-36γ dual antagonist antibodies, the binding activity to human and cynomolgus IL-36α and IL-36γ was measured by surface plasmon resonance method (SPR). All of the following manipulations were carried out using a Biacore T200 (GE Healthcare Life Sciences, Pittsburgh, Pa.).
(§3) To determine antibody affinity to human and cynomolgus IL36, recombinant antibodies were immobilized on a CM5 sensor chip (cat# BR100012, GE Healthcare Life Sciences, Pittsburgh, Pa.) by an amine coupling chemistry. In particular, the kinetic assay was carried out by immobilizing on the chip approximately 2000 RU of recombinant antibody. Thereafter, recombinant human or cynomolgus IL36 proteins, serially diluted from a high concentration, were allowed to run at a flow rate of 30 μL/min onto the chip for 420 seconds. The dissociation time was 3600 seconds and the binding curves were measured at 25° C. Regeneration was performed with 10 mM glycine pH 1.5 for 30s. Alternatively, the analytes were injected with increasing concentrations in a single cycle, the surface not being regenerated between injections, using a method referred to as “single cycle kinetics.” In particular, either anti-human or anti-mouse Fc specific antibodies were immobilized on a CM5 sensor chip (cat# BR100012, GE Healthcare Life Sciences, Pittsburgh, Pa.) by an amine coupling chemistry. Thereafter, IL-36α and IL-36γ dual antagonist mouse/human chimeric or mouse antibodies were captured at approximately 200 RUs, followed by injections of increasing concentrations of recombinant human and cynomolgus IL36 proteins. The association time was 300 seconds, and the final dissociation time was 1200 seconds. At the end of the analyte injections, the surface was regenerated with either 3M MgCl₂ (anti-human Fc capture antibody) for 30 s or 10 mM glycine-HCl pH 1.7 for 180 s (anti-mouse IgG capture antibody).
(§4) The raw data were double referenced by subtraction of the signals from a reference flow cell without immobilized ligand and a buffer blank. The sensorgram corresponding to each concentration was obtained.

[14] = molecular target: T1, human IL-36α(R12), truncated; assay: cell-based or functional assay
human IL-36γ, truncated [15] = molecular target: T2, human IL-36γ, truncated; assay: cell-based or functional assay; remark: listed apart in the source
[16] = molecular target: T1, human IL-36α(R12), truncated; assay: SPR, Biacore T200, antibody on chip, IL-36 as analyte, 1:1 Langmuir fit
Method: as §2, §3, §4

human IL-36γ, truncated [17] = molecular target: T2, human IL-36γ, truncated; assay: as above
Method: as §2, §3, §4

IC50 of IL-8 secretion, HaCaT, 10 nM human IL-36α, FIG. 1B [9]: 39.2 nM
IC50 of IL-8 secretion, HaCaT, 10 nM cynomolgus IL-36α, FIG. 2A [10]: 19.3 nM
IC50 of IL-8 secretion, HaCaT, 10 nM human IL-36γ, FIG. 1E (human IL-36γ, truncated [11]): 19.4 nM
IC50 of IL-8 secretion, HaCaT, 10 nM cynomolgus IL-36γ, FIG. 2C [12]: 44.4 nM
Kd [13]: 7.01 nM
koff [13]: 0.00868 s⁻¹
kon [13]: 1.24e+06 M⁻¹ s⁻¹
B3: m/h 144J171G (antibody, human IgG1, lambda, V domains shown)
VH: EVQLQQSGAELVEPGASVKLSCTASGFNIKDTYINWVKQRPEQGLEWIGRIDPANGYTRYAPKFQGKATITSDTSSNTAYLQLSSLTSEDAAVYSCSTLNYYGSSFFFDFWGQGTTLTVSS
VL: QAVVTQESALTTSPGETVTLTCRSSTGAVTTSNYANWVQEKPDHLFTGLIGGTNNRAPGVPARFSGSLIGDKAALTITGAQTEDEAIYFCALWYSNHWVFGGGTKLTVLG
notes: Mouse VH/VL joined to human IgG1 constant and human Ig lambda (IGLC2) constant; also called chimeric mouse/human 144J171G

IC50 of IL-8 secretion, primary human monocytes, 6 nM human IL-36γ, FIG. 5C (human IL-36γ, truncated [15]): 9.02 nM
IC50 of IL-8 secretion, primary human monocytes, 50 nM human IL-36γ, FIG. 5D (human IL-36γ, truncated [15]): 38.1 nM
Kd [16]: 25.1 nM
koff [16]: 0.00219 s⁻¹
kon [16]: 87300 M⁻¹ s⁻¹
Kd [13]: 1.75 nM
koff [13]: 0.000834 s⁻¹
kon [13]: 476000 M⁻¹ s⁻¹
Kd (human IL-36γ, truncated [17]): 3.06 nM
koff (human IL-36γ, truncated [17]): 0.000342 s⁻¹
kon (human IL-36γ, truncated [17]): 112000 M⁻¹ s⁻¹
B6: m/h 144D666C (antibody, human IgG1, lambda, V domains shown)
VH: EVQLQQSGAELVKPGASVKLTCTASGFNIKDTYIYWVKQRPAQGLEWIGRIDPANAYTKFDPKFQGKATLTADTSSNTAYLQLSSLTSEDTAVYYCTRFHWYGSSFFFDYWGQGTTLTVSS
VL: QAVVTQESALTTSPGETVTLTCRSSTGAVTTSNYANWVQEKPDHLFTGLIGGTDNRPPGVPARFSGSLIGDKAALTITGAQTEDEAIYFCALWYSNLWVFGGGTKLTVLG
notes: Mouse VH/VL joined to human IgG1 constant and human Ig lambda (IGLC2) constant; also called chimeric mouse/human 144D666C

IC50 of IL-8 secretion, primary human monocytes, 40 nM human IL-36α, FIG. 5B [14]: 27.5 nM
Kd [13]: 1.86 nM
koff [13]: 0.0227 s⁻¹
kon [13]: 1.22e+07 M⁻¹ s⁻¹
B7: m/h 144L124B (antibody, human IgG1, lambda, V domains shown)
VH: EVQLQQSGAELVKPGASVKLSCTASGFNIKDTYIYWVKQRPEQGLEWIGRIDPANGYTRYDPKFQGKATMTADTSSNTAYLQLSSLTSEDTAVYYCARYEYYDSSFYFDYWGQGTTLTVSS
VL: QAVVTQESALTTSPGETVTLTCRSSTGAVTTSNYANWVQEKPDHLFTGLIGGTNNRAPGVPARFSGSLIGDKAALTITGAQTEDEAIYFCALWYSNHLVFGGGTKLTVLG
notes: Mouse VH/VL joined to human IgG1 constant and human Ig lambda (IGLC2) constant; also called chimeric mouse/human 144L124B

Second part, the binder before the results:

B1: 144D464A LV10re HV10b (antibody, V domains shown)
VH: QVQLVQSGAEVKKPGASVKVSCKASGFNIKDTYIHWVRQAPGQGLEWIGRIDPAIGTTRYDPKFQGRATITTDTSTSTVYLEFSSLRSEDTAVYYCARLHYFGNNFFFDYWGQGTLVTVSS
VL: QAVVTQEPSLTVSPGGTVTLTCRSSSGAVTTSNYANWVQEKPGQLFAGLIGGTNDRAPGVPARFSGSLLGGKAALTLSGAQPEDEAIYFCALWFSNHWVFGGGTKLTVL
notes: Humanized
Kd [1]: 1.87 nM
Kd (human IL-36γ, truncated [2]): 1.2 nM
Kd [3]: 1.12 nM
Kd [4]: 1.02 nM
koff [5]: 0.000429 s⁻¹
kon [5]: 229000 M⁻¹ s⁻¹
koff (human IL-36γ, truncated [6]): 0.000425 s⁻¹
kon (human IL-36γ, truncated [6]): 353000 M⁻¹ s⁻¹
koff [7]: 0.000415 s⁻¹
kon [7]: 372000 M⁻¹ s⁻¹
koff [8]: 0.00047 s⁻¹
kon [8]: 460000 M⁻¹ s⁻¹

B2: 144D464A LV11re HV10b (antibody, V domains shown)
VH: QVQLVQSGAEVKKPGASVKVSCKASGFNIKDTYIHWVRQAPGQGLEWIGRIDPAIGTTRYDPKFQGRATITTDTSTSTVYLEFSSLRSEDTAVYYCARLHYFGNNFFFDYWGQGTLVTVSS
VL: QAVVTQEPSLTVSPGGTVTLTCRSSSGAVTTSNYANWVQEKPGQLFAGLIGGTNDRAPGVPARFSGSLLGGKAALTISGAQPEDEAIYFCALWFSNHWVFGGGTKLTVL
notes: Humanized
Kd [1]: 1.86 nM
Kd (human IL-36γ, truncated [2]): 1.21 nM
Kd [3]: 1.1 nM
Kd [4]: 1.04 nM
koff [5]: 0.000422 s⁻¹
kon [5]: 226000 M⁻¹ s⁻¹
koff (human IL-36γ, truncated [6]): 0.00042 s⁻¹
kon (human IL-36γ, truncated [6]): 346000 M⁻¹ s⁻¹
koff [7]: 0.000407 s⁻¹
kon [7]: 369000 M⁻¹ s⁻¹
koff [8]: 0.000463 s⁻¹
kon [8]: 446000 M⁻¹ s⁻¹

B4: m/h 144L249B (antibody, human IgG1, lambda, V domains shown)
VH: EVQLQQSGAELVKPGASVKLSCTASGFNIKDTYIYWVKQRPEQGLEWIGRIDPAIGTTRYDPKFQGKATLTADTSSNTAFLQLSSLTSEDTAVYYCARYDYSGSSFYFDYWGRGTTLTVSS
VL: QAVVTQESALTTSPGETVTLTCRSSTGAVTTSNYANWVQEKPDHLFTGLIGGTNNRAPGVPARFSGSLIGDKAALTITGAQTEDEAIYFCALWYSNHLVFGGGTKLTVLG
notes: Mouse VH/VL joined to human IgG1 constant and human Ig lambda (IGLC2) constant; also called chimeric mouse/human 144L249B
IC50 of IL-8 secretion, primary human monocytes, 40 nM human IL-36α, FIG. 5B [14]: 38.3 nM
Kd [13]: 1.02 nM
koff [13]: 0.000825 s⁻¹
kon [13]: 805000 M⁻¹ s⁻¹

B5: 144J171G (antibody, V domains shown)
VH: EVQLQQSGAELVEPGASVKLSCTASGFNIKDTYINWVKQRPEQGLEWIGRIDPANGYTRYAPKFQGKATITSDTSSNTAYLQLSSLTSEDAAVYSCSTLNYYGSSFFFDFWGQGTTLTVSS
VL: QAVVTQESALTTSPGETVTLTCRSSTGAVTTSNYANWVQEKPDHLFTGLIGGTNNRAPGVPARFSGSLIGDKAALTITGAQTEDEAIYFCALWYSNHWVFGGGTKLTVL
IC50 of IL-8 secretion, HaCaT, 10 nM human IL-36α, FIG. 1B [9]: 27 nM
IC50 of IL-8 secretion, HaCaT, 10 nM cynomolgus IL-36α, FIG. 2A [10]: 16.8 nM
IC50 of IL-8 secretion, HaCaT, 10 nM human IL-36γ, FIG. 1E (human IL-36γ, truncated [11]): 19.2 nM
IC50 of IL-8 secretion, HaCaT, 10 nM cynomolgus IL-36γ, FIG. 2C [12]: 82.7 nM
IC50 of IL-8 secretion, primary human monocytes, 50 nM human IL-36γ, FIG. 5D (human IL-36γ, truncated [15]): 113 nM
